In patent publication US20170022275A1 (Dana-Farber, published 2017):

Experiments:
[1] = target: MICA antigen (UniGene Hs.130838) with C-terminal BirA tag (human) (UniProt Q29983); experiment: flow cytometry of MICA-coated streptavidin beads, antibody directly PE-conjugated; 0.002 µg/ml; uncoated SA bead: 2.16
[2] = target: MICA antigen (UniGene Hs.130838) with C-terminal BirA tag (human) (UniProt Q29983); experiment: flow cytometry of MICA-coated streptavidin beads, antibody directly PE-conjugated; legend box says 0.12ug, the label in the panel says 0.05 µg/ml (they do not agree); uncoated SA bead: 1.95
[3] = target: MICA antigen (UniGene Hs.130838) with C-terminal BirA tag (human) (UniProt Q29983); experiment: flow cytometry of MICA-coated streptavidin beads, antibody directly PE-conjugated; legend box says 0.024ug, the label in the panel says 0.01 µg/ml (they do not agree); uncoated SA bead: 1.95
[4] = target: MICA antigen (UniGene Hs.130838) with C-terminal BirA tag (human) (UniProt Q29983); experiment: flow cytometry of MICA-coated streptavidin beads, antibody directly PE-conjugated; legend box says 0.001ug, the label in the panel says 0.24 µg/ml (they do not agree); uncoated SA bead: 1.95
[5] = target: MICA on the surface of cells (human) (UniProt Q29983); experiment: flow cytometry on B16 melanoma cells transduced with human MICA, antibody 10 µg/ml; B16 MICA unstained 11.4; same antibody on untransduced B16: 7.49 (B16 unstained 7.12)
[6] = target: MICA antigen (UniGene Hs.130838) with C-terminal BirA tag (human) (UniProt Q29983); experiment: flow cytometry of MICA-coated streptavidin beads, antibody directly PE-conjugated; legend box says 0.005ug, the label in the panel says 1.2 µg/ml (they do not agree); uncoated SA bead: 1.98
[7] = target: MICA antigen (UniGene Hs.130838) with C-terminal BirA tag (human) (UniProt Q29983); experiment: flow cytometry of MICA-coated streptavidin beads, Alexa488 anti-human IgG; antibody 30 µg/ml; uncoated SA bead: 3.53
[8] = target: MICA antigen (UniGene Hs.130838) with C-terminal BirA tag (human) (UniProt Q29983); experiment: flow cytometry of MICA-coated streptavidin beads, Alexa488 anti-human IgG; antibody 0.24 µg/ml; uncoated SA bead: 2.3
[9] = target: MICA antigen (UniGene Hs.130838) with C-terminal BirA tag (human) (UniProt Q29983); experiment: flow cytometry of MICA-coated streptavidin beads, Alexa488 anti-human IgG; antibody 6 µg/ml; uncoated SA bead: 2.63
[10] = target: MICA antigen (UniGene Hs.130838) with C-terminal BirA tag (human) (UniProt Q29983); experiment: flow cytometry of MICA-coated streptavidin beads, Alexa488 anti-human IgG; antibody 1.2 µg/ml; uncoated SA bead: 2.16
[11] = target: MICA antigen (UniGene Hs.130838) with C-terminal BirA tag (human) (UniProt Q29983); experiment: flow cytometry of MICA-coated streptavidin beads, Alexa488 anti-human IgG; antibody 0.05 µg/ml; uncoated SA bead: 2.18
MICA*009 = target: T1, MICA*009 (human, UniProt Q29983 26-307); experiment: array of overlapping 20-aa peptides of MICA*009 extracellular domains
T1 construct: also called MICA allele 009
T1 chain: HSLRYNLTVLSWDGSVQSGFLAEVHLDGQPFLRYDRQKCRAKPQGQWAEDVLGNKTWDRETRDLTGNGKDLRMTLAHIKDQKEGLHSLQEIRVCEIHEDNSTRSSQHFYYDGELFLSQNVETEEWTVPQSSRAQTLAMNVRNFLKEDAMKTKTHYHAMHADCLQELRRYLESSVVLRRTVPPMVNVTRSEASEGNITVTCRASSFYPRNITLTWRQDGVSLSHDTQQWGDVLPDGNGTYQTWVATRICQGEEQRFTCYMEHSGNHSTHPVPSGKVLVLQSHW

Chain of MICA antigen (UniGene Hs.130838) with C-terminal BirA tag (human) (Q29983 other isoform, or with tags, fused parts or gaps limits assumed): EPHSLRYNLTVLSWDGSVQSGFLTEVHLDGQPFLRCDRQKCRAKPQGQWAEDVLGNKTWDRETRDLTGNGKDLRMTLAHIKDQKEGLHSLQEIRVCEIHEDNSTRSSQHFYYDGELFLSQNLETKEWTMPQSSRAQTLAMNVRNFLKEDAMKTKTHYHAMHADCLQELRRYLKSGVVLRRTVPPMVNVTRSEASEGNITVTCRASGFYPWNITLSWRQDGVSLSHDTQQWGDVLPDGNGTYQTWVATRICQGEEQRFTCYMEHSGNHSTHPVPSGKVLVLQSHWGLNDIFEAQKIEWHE
Chain of MICA on the surface of cells (human) (Q29983 24-383): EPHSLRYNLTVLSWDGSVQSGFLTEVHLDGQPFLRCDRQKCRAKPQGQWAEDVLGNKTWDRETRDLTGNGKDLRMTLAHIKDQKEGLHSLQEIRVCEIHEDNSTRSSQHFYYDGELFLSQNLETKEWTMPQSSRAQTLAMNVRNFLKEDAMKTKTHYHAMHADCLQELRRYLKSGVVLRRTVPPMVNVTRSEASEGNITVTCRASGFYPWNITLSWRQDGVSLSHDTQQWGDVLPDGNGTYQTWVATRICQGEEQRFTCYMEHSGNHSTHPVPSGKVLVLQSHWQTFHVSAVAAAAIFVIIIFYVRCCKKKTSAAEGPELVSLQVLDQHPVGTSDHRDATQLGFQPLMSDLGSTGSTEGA

commercially available anti-MICA/MICB monoclonal antibody (clone 6D4), BioLegend
unnamed fluorescence number (FL2-H) [1]: 4.31
unnamed fluorescence number (FL2-H) [2]: 391
unnamed fluorescence number (FL2-H) [3]: 194
unnamed fluorescence number (FL2-H) [4]: 16.8
Geom. Mean:FL1-H [5]: 188
unnamed fluorescence number (FL2-H) [6]: 65.9

negative control antibody (TTCF specific)
unnamed fluorescence number (FL1-H) [7]: 3.43
unnamed fluorescence number (FL1-H) [8]: 2.28
unnamed fluorescence number (FL1-H) [9]: 2.62
unnamed fluorescence number (FL1-H) [10]: 2.27
unnamed fluorescence number (FL1-H) [11]: 2.23

B1: CM33322 Ab4 (antibody, V domains shown)
VH: QVQLQESGPGLVRPSGTLSLTCAVSGGSIDYSNWWGWVRQVPGKGLEWIGEVYHTGATHYNPSLERRCIISVDKSNNQVSLQLTSVTAADSAIYYCARERGTHCDGNRCYYVFFDHWGQGIPVTVSS
VL: DIVMTQTPLSSPVTLGQPASISCRSSESLVHWDGTTYLSWFHQRPGQPPRLLIYKVSNRFSGVPDRFSGSGAGTDFTLKISRVEADDVGIYYCMQATQFPRTFGQGTKVEIKR
notes: also called anti-MICA antibody ID-11; antibody ID 11
binding result (MICA*009): binds
